Reference: IntAct's records for PubMed 23681068

B1: RNA-binding protein FUS (Homo sapiens), P35637 (parent)
chain: MASNDYTQQATQSYGAYPTQPGQGYSQQSSQPYGQQSYSGYSQSTDTSGYGQSSYSSYGQSQNTGYGTQSTPQGYGSTGGYGSSQSSQSSYGQQSSYPGYGQQPAPSSTSGSYGSSSQSSSYGQPQSGSYSQQPSYGGQQQSYGQQQSYNPPQGYGQQNQYNSSSGGGGGGGGGGNYGQDQSSMSSGGGSGGGYGNQDQSGGGGSGGYGQQDRGGRGRGGSGGGGGGGGGGYNRSSGGYEPRGRGGGRGGRGGMGGSDRGGFNKFGGPRDQGSRHDSEQDNSDNNTIFVQGLGENVTIESVADYFKQIGIIKTNKKTGQPMINLYTDRETGKLKGEATVSFDDPPSAKAAIDWFDGKEFSGNPIKVSFATRRADFNRGGGNGRGGRGRGGPMGRGGYGGGGSGGGGRGGFPSGGGGGGGQQRAGDWKCPNPTCENMNFSWRNECNQCKAPKPDGPGGGPGGSHMGGNYGDDRRGGRGGYDRGGYRGRGGDRGGFRGGRGGGDRGGFGPGKMDSRGEHRQDRRERPY

Variants of: B1
Settings: with smn_mouse Smn1, P97801
Sequence of smn_mouse Smn1, P97801 (P97801 whole entry): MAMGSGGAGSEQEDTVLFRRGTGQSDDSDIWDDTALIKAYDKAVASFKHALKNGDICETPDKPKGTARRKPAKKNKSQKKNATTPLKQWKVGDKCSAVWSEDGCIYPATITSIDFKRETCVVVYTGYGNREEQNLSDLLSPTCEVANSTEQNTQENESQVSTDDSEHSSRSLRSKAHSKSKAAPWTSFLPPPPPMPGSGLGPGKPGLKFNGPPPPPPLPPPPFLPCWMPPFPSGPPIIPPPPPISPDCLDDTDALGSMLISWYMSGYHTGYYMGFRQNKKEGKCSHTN

Variant	effect of a mutation on the interaction
MASNDYTQQATQSYGAYPTQPGQGYSQQSSQPYGQQSYSGYSQSTDTSGYGQSSYSSYGQSQNTGYGTQSTPQGYGSTGGYGSSQSSQSSYGQQSSYPGYGQQPAPSSTSGSYGSSSQSSSYGQPQSGSYSQQPSYGGQQQSYGQQQSYNPPQGYGQQNQYNSSSGGGGGGGGGGNYGQDQSSMSSGGGSGGGYGNQDQSGGGGSGGYGQQDRGGRGRGGSGGGGGGGGGGYNRSSGGYEPRGRGGGRGGRGGMGGSDRGGFNKFGGPRDQGSRHDSEQDNSDNNTIFVQGLGENVTIESVADYFKQIGIIKTNKKTGQPMINLYTDRETGKLKGEATVSFDDPPSAKAAIDWFDGKEFSGNPIKVSFATRRADFNRGGGNGRGGRGRGGPMGRGGYGGGGSGGGGRGGFPSGGGGGGGQQRAGDWKCPNPTCENMNFSWRNECNQCKAPKPDGPGGGPGGSHMGGNYGDDRRGGRGGYDRGGYRGRGGDRGGFRGGRGGGDRGGFGPGKMDSRGEHRQDHRERPY [R521H]	increasing interaction strength
MASNDYTQQATQSYGAYPTQPGQGYSQQSSQPYGQQSYSGYSQSTDTSGYGQSSYSSYGQSQNTGYGTQSTPQGYGSTGGYGSSQSSQSSYGQQSSYPGYGQQPAPSSTSGSYGSSSQSSSYGQPQSGSYSQQPSYGGQQQSYGQQQSYNPPQGYGQQNQYNSSSGGGGGGGGGGNYGQDQSSMSSGGGSGGGYGNQDQSGGGGSGGYGQQDRGGRGRGGSGGGGGGGGGGYNRSSGGYEPRGRGGGRGGRGGMGGSDRGGFNKFGGPRDQGSRHDSEQDNSDNNTIFVQGLGENVTIESVADYFKQIGIIKTNKKTGQPMINLYTDRETGKLKGEATVSFDDPPSAKAAIDWFDGKEFSGNPIKVSFATRRADFNRGGGNGRGGRGRGGPMGRGGYGGGGSGGGGRGGFPSGGGGGGGQQRAGDWKCPNPTCENMNFSWRNECNQCKAPKPDGPGGGPGGSHMGGNYGDDRRGGRGGYDRGGYRGRGGDRGGFRGGRGGGDRGGFGPGKMDSRGEHRQDCRERPY [R521C]	increasing interaction strength
MASNDYTQQATQSYGAYPTQPGQGYSQQSSQPYGQQSYSGYSQSTDTSGYGQSSYSSYGQSQNTGYGTQSTPQGYGSTGGYGSSQSSQSSYGQQSSYPGYGQQPAPSSTSGSYGSSSQSSSYGQPQSGSYSQQPSYGGQQQSYGQQQSYNPPQGYGQQNQYNSSSGGGGGGGGGGNYGQDQSSMSSGGGSGGGYGNQDQSGGGGSGGYGQQDRGGRGRGGSGGGGGGGGGGYNRSSGGYEPRGRGGGRGGRGGMGGSDRGGFNKFGGPRDQGSRHDSEQDNSDNNTIFVQGLGENVTIESVADYFKQIGIIKTNKKTGQPMINLYTDRETGKLKGEATVSFDDPPSAKAAIDWFDGKEFSGNPIKVSFATRRADFNRGGGNGRGGRGRGGPMGRGGYGGGGSGGGGRGGFPSGGGGGGGQQRAGDWKCPNPTCENMNFSWRNECNQCKAPKPDGPGGGPGGSHMGGNYGDDRRGGRGGYDRGGYRGRGGDRGGFRGGRGGGDRGGFGPGKMDSRGEHRQDRRERLY [P525L]	increasing interaction strength

Variants of: B1
Settings: with smn_mouse Smn1, P97801
Remark: another data set of the same source

Variant	effect of a mutation on the interaction
MASNDYTQQATQSYGAYPTQPGQGYSQQSSQPYGQQSYSGYSQSTDTSGYGQSSYSSYGQSQNTGYGTQSTPQGYGSTGGYGSSQSSQSSYGQQSSYPGYGQQPAPSSTSGSYGSSSQSSSYGQPQSGSYSQQPSYGGQQQSYGQQQSYNPPQGYGQQNQYNSSSGGGGGGGGGGNYGQDQSSMSSGGGSGGGYGNQDQSGGGGSGGYGQQDRGGRGRGGSGGGGGGGGGGYNRSSGGYEPRGRGGGRGGRGGMGGSDRGGFNKFGGPRDQGSRHDSEQDNSDNNTIFVQGLGENVTIESVADYFKQIGIIKTNKKTGQPMINLYTDRETGKLKGEATVSFDDPPSAKAAIDWFDGKEFSGNPIKVSFATRRADFNRGGGNGRGGRGRGGPMGRGGYGGGGSGGGGRGGFPSGGGGGGGQQRAGDWKCPNPTCENMNFSWRNECNQCKAPKPDGPGGGPGGSHMGGNYGDDRRGGRGGYDRGGYRGRGGDRGGFRGGRGGGDRGGFGPGKMDSRGEHRQDCRERPY [R521C]	with no effect
